According to the supplement of paper PMC10724198:
± gives the standard deviation of the averaged measurements.

Test system: Saccharomyces cerevisiae
Assay: protein stability index of tFT-peptide fusion (C-terminal peptide) (PSI (0-1 scale)); higher = more stable (slower turnover)
Conditions: genetic background: wild type; temperature: 30 C
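Further: PSI is a weighted mean of sequencing reads over stability bins, variants kept only with over 10 reads, mCherry proximal and sfGFP distal, peptide attached via GGGS linker.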

| Sequence | protein stability index |
| --- | --- |
| VSPGPSPPPPPR | 0.622 ± 0.072 |
| TAPPPSQTPPRT | 0.684 ± 0.0076 |
| SSLPPPPRSPPH | 0.715 ± 0.029 |
| PPPPSHPSPPPP | 0.654 ± 0.021 |
| GPTPPRSPPAVS | 0.646 ± 0.055 |
| ACRPRPPLSRSP | 0.739 ± 0.032 |
| CWNVLVPFDEVI | 0.6 ± 0.08 |
| PGPPTPPPPLYP | 0.706 ± 0.012 |
| VHFSSSCDYLIV | 0.653 ± 0.081 |
| PPRPPCSPLPPR | 0.678 ± 0.052 |
| LSCSPVFFPLQP | 0.69 ± 0.0096 |
| QTTKEQQKKSYK | 0.665 ± 0.053 |
| RRPAPTRPPHTK | 0.711 ± 0.013 |
| VSRPRSLLVPNF | 0.67 ± 0.07 |
| GRLRLDAAGCMW | 0.675 ± 0.048 |
| LSSADSVVSSVV | 0.696 ± 0.0093 |
| GVWSLVGRGGEG | 0.621 ± 0.017 |
| GWGVPGPEPREP | 0.658 ± 0.064 |
| PPPPPSPAPSLR | 0.723 ± 0.052 |
| HISSFPSPPPPV | 0.711 ± 0.054 |
| PSFLPPAPLGIS | 0.741 ± 0.038 |
| KKKKKKKMTNLK | 0.809 ± 0.054 |
| PPFLSPLRPPSL | 0.781 ± 0.09 |
| ALGRWAVSCNRG | 0.71 ± 0.11 |
| PLPALPPPPRGP | 0.636 ± 0.026 |
| VACIIIDFTRWY | 0.536 ± 0.019 |

| Sequence | protein stability index |
| --- | --- |
| FDVAPTSRVNFL | 0.724 ± 0.06 |
| PRRLAPPPPPSP | 0.744 ± 0.012 |
| MPLPRQTSAPRP | 0.665 ± 0.019 |
| LCAPPPSLSPFV | 0.708 ± 0.025 |
| SVWVCLASWCCG | 0.5487 ± 0.0038 |
| QYLKTKKEGKEF | 0.698 ± 0.024 |
| GGWSGRFVTVGR | 0.713 ± 0.066 |
| SPPLTLPPYPPP | 0.7149 ± 0.0031 |
| CSLGCSLSALDS | 0.663 ± 0.025 |
| SERPVPTSISLR | 0.682 ± 0.0069 |
| FPATSTCTFALY | 0.665 ± 0.0012 |
| QQPPSSGTPDNH | 0.703 ± 0.027 |
| RGLRVWWGLVGV | 0.633 ± 0.044 |
| DAVVPSSTVPLL | 0.7001 ± 0.0022 |
| PPPHPTPPLTSP | 0.702 ± 0.058 |
| SVLWLSSLRVPL | 0.7074 ± 0.0032 |
| PRTGPLPPLTPL | 0.679 ± 0.016 |
| PCHSPATRTLPC | 0.6824 ± 0.0025 |
| FAARASLSPLTR | 0.855 ± 0.2 |
| SRLPPHSPVHAS | 0.787 ± 0.042 |
| SHSTNNHKLTPR | 0.677 ± 0.082 |
| FPQHPLFDPPAF | 0.793 ± 0.013 |
| AGWGRRRLDGGR | 0.684 ± 0.02 |
| APPPGSTFVSCE | 0.674 ± 0.045 |
| SSPPPPVPPPPS | 0.725 ± 0.082 |
| PPTTPHPTPTAP | 0.689 ± 0.033 |

| Sequence | protein stability index |
| --- | --- |
| YTAPIIGIGDDG | 0.659 ± 0.036 |
| PSPALGPFLAYR | 0.695 ± 0.0077 |
| FDGRVTALRVRL | 0.724 ± 0.033 |
| PLFPACYFHPFD | 0.746 ± 0.032 |
| TSPPPPSPPPPP | 0.785 ± 0.13 |
| VLLRVSEQVSRV | 0.676 ± 0.1 |
| GPPPAWALCYPL | 0.601 ± 0.023 |
| RRRSSRPAPPPL | 0.698 ± 0.023 |
| SPHPPPPPSPPP | 0.723 ± 0.059 |
| PLLASRFLQVGF | 0.678 ± 0.0074 |
| CSSEGFSLASMI | 0.707 ± 0.025 |
| LIVPGGLSVFGG | 0.676 ± 0.082 |
| PGPPSTAPHLPE | 0.659 ± 0.018 |
| RKLHDKDDPKTI | 0.681 ± 0.03 |
| TSCPPPLAPSYD | 0.6909 ± 0.0045 |
| QQDHRSHAHRRL | 0.7047 ± 0.0013 |
| AGAGLGVVLGWW | 0.684 ± 0.017 |
| WNRSAFLSSGTI | 0.67578 ± 3.2e-05 |
| EQSERGIQQGTN | 0.633 ± 0.02 |
| SPPLLLPNLCPC | 0.543 ± 0.023 |
| NEIENYKDIIEK | 0.684 ± 0.011 |
| SFIGEDHQCVFY | 0.723 ± 0.013 |
| IGSCLSRTRKRR | 0.6922 ± 0.0031 |
| YPYLLSPRPPPP | 0.628 ± 0.047 |
| GGAVRSGRLFCC | 0.648 ± 0.022 |
| RDAVLSCARRSQ | 0.752 ± 0.17 |

| Sequence | protein stability index |
| --- | --- |
| SCVDHLGCHSSG | 0.739 ± 0.029 |
| TDNIRIERYKEQ | 0.689 ± 0.064 |
| VWSLGLSVVGLW | 0.649 ± 0.092 |
| RRGRNDLEESMR | 0.702 ± 0.0078 |
| AYGVGQERWVRE | 0.725 ± 0.061 |
| NTPSKKHDLNRL | 0.707 ± 0.033 |
| IKKRVTFSYDGK | 0.686 ± 0.062 |
| EGITFGNDECWC | 0.782 ± 0.095 |
| IFPLPPSSRLTP | 0.6934 ± 0.0037 |
| GSRGHLGRGGPG | 0.727 ± 0.017 |
| KCRGRGRQEAFE | 0.6643 ± 0.0018 |
| IDLIKIKKKTKK | 0.786 ± 0.17 |
| RDVRNRARVKRE | 0.693 ± 0.012 |
| GRGWGWALGWCG | 0.698 ± 0.0095 |
| KEQYFKGSKKPI | 0.651 ± 0.029 |
| WGGLGGREPGGS | 0.74 ± 0.078 |
| GVVMLSDDGSAW | 0.718 ± 0.026 |
| KKNYEKPIRKYQ | 0.642 ± 0.02 |
| WGSWCLVPDGNE | 0.717 ± 0.084 |
| RSTQRWAVAWSG | 0.678 ± 0.09 |
| LRRPSPPAPPPP | 0.718 ± 0.11 |
| SGPGPGAVGATC | 0.702 ± 0.057 |
| RWGGGQRLSRGT | 0.7082 ± 0.0037 |
